We go through three substances from article PMC4241043.

Experiment [1] addresses protein FAF (F. magna adhesion factor), recombinant, amino acids 28-616 (F. magna). Put plainly: SPR. Background: In SPR one partner is held on a chip, and binding of the other changes the refractive index at the surface.
The target of experiment [2] is FAF-expressing strains (ALB8, L3410, 1462 and 2133). Put plainly: radioligand binding.
Experiment [3] deals with protein FAF on the surface of F. magna strain ALB8 (F. magna (endogenous in strain ALB8)). Nature of the experiment: radioligand binding.

galectin-7, sequence (P47929 whole entry): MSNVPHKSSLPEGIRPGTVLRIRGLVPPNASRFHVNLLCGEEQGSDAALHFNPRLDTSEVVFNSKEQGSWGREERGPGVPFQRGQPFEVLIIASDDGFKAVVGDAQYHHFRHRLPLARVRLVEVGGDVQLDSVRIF

In general, Kd refers to the free concentration of one partner at which half of the binding sites on the other are occupied at equilibrium, for simple one-to-one binding. In the case of “galectin-7 (from UniProt P47929 1-136) (natural protein)”, the Kd in experiment [1] is 0.53 nM. In experiment [2], this substance came in with a percent of added radiolabelled galectin-7 bound of 20 to 30%.
Substance “rF16, N-terminal half of fibrillin-1 (domain or fragment)” showed a percent binding of 125I-labelled fragment in experiment [3] of 24%.
Regarding “rFBN2-2, N-terminal half of fibrillin-2 (domain or fragment)”, the percent binding of 125I-labelled fragment in experiment [3] came out at 17%.
